Test results taken from PMC11630628 (Molecular Plant, 2024).

Columns and labels:
[1] = tested on: Arabidopsis WT intact rosette leaves; experiment: Exogenous peptide application on intact rosette leaves; assay type: in vivo, Arabidopsis thaliana; details: SCOOP10 1 μM sprayed, vs mock
Procedure: A. thaliana ecotype Columbia-0 and mutants used in this study include mik2-1 (SALK_06269), mik2-2 (CS419958), proscoop10-1 (SALK_080439), and proscoop10-2 (SALK_027949), which were obtained from ABRC. The proscoop12 CRISPR-Cas9-generated mutants were kindly provided by Dr. Elia Stahi at the University of Lausanne, Switzerland ([Stahl et al., 2022]). Imbibed seeds were incubated at 4°C in a refrigerator for 2 days before sowing on the soil mix (3 parts commercial soil: 1 parts vermiculite) and grown under the long-day condition (16 h light/8 h dark) in a growth chamber with 150 μmol m^−2 s^−1 light intensity. For the senescence phenotyping of detached leaves, the fifth and sixth rosette leaves of 25-day-old plants were removed and placed in Petri dishes with the adaxial side facing up. The Petri dishes were sealed with parafilm to prevent water loss, and the leaves were incubated with deionized water. The application of exogenous peptides followed the previously established method ([Zhang et al., 2022a], [2022b]). For dark-induced leaf senescence assays, detached rosette leaves were incubated in deionized water placed in the dark condition for 6 days. At least three biological replicates were included for each assay. For senescence phenotype analysis under normal growth conditions, homozygous plants were grown alongside Col-0. All data including plant phenotypes and gene expression presented in this study were analyzed with GraphPad Prism 9, and at least three biological replicates were included in each experiment. Chl content, photochemical efficiency of PSII (Fv/Fm ratio), and ion leakage were determined as previously described ([Zhang et al., 2020], [2022b]; [Guo et al., 2022]).
Figure S4. […]
after 1 to 10 days of treatments. Three independent experiments were performed with 8 leaves measured for each […]
determined by one-way ANOVA (α = 0.05) followed by Bonferroni post-hoc test for multiple comparisons (*P ≤ 0.05, ***P […]
indicate statistically significant differences compared to WT, as determined by one-way ANOVA analysis (α = 0.05) […]

[2] = tested on: bak1 mutants; design: method as in Hou et al., 2021b; details: ref Hou et al., 2021b; cited from earlier work
[3] = tested on: ORE1, NAP and SAG12 transcripts; experiment: qPCR expression of senescence genes in detached leaves; assay type: cell-based, Arabidopsis thaliana; details: 1 μM peptide, 0, 1, 5, 10 h, detached sixth rosette leaves, vs mock, ACTIN reference, three experiments
From the text: (§1) Total RNA was isolated from Arabidopsis leaves with the RNAiso Plus (TAKARA) and reverse transcribed using the PrimeScript RT reagent Kit (TAKARA). qPCR reactions were implemented in an Applied Biosystems 7500 Real-Time PCR system with the SYBR Premix Ex Taq II (TAKARA). ACTIN was used as the reference gene for qPCR analyses. The primers used for qPCR are listed in Supplemental Table 2.

[4] = tested on: bak1-5 serk4 double mutant; design: method as in Hou et al., 2021b; details: ref Hou et al., 2021b; cited from earlier work
[5] = tested on: MIK2-dependent plant immune response; details: ref Hou et al., 2021b, Rhodes et al.; cited from earlier work
From the text: Senescence, a crucial biological event in plant development, involves the coordinated breakdown of cellular components to recycle nutrients, aiding adaptation to changing environments. It optimizes nutrient storage and reuse, particularly in leaves, the primary photosynthetic organs. Initiation of leaf senescence prompts various physiological changes, including chlorophyll (Chl) reduction and macromolecule degradation, enabling nutrient recycling that supports the growth of seeds and fruits ([Yang et al., 2014]; [Kim et al., 2018]; [Woo et al., 2019]; [Guo et al., 2021]). Efficient senescence ... || MIK2 was also linked to cell wall integrity ([Van der Does et al., 2017]; [Coleman et al., 2020]) and disease resistance ([Van der Does et al., 2017]). MIK2 was reported to function in elicitor perception in response to infection by Fusarium spp. fungi ([Van der Does et al., 2017]; [Coleman et al., 2020]). […] Loss-of-function in p ...

[6] = tested on: purified His-tagged MIK2 ectodomain; experiment: Pull-down assay with biotinylated peptides; assay type: binding, Arabidopsis thaliana; details: biotinylated peptide, streptavidin magnetic beads, 20 mM Tris-HCl pH 7.3, 150 mM NaCl, 0.1% NP-40, anti-His Western blot, repeated three times, conclusion also rests on MST
Procedure: Subsequently, 30 μL streptavidin magnetic beads (New England Biolabs) were added to each sample and incubated for 1 h at 4°C, followed by washing 5–6 times with 1.0 mL of interactive buffer. The proteins bound to the beads were then eluted using interactive buffer containing 5× SDS loading buffer, and western blot analysis was conducted as previously described ([Lan et al., 2023]). In the competitive binding assay, 50 nM purified MIK2 protein featuring a His-tag at its C-terminal was initially mixed with 250 nM of biotinylated SCOOP10. […] After thorough mixing, the beads underwent 5–6 washes to meticulously remove any residual proteins, and then the preparations were subjected to detailed analysis via western blotting to probe the interactions.

[7] = tested on: PROSCOOP12 transcript; experiment: qPCR expression of PROSCOOP12 in detached leaves; assay type: cell-based, Arabidopsis thaliana
From the text: as §1

[8] = tested on: Arabidopsis root elongation; details: ref Hou et al., 2021b, Rhodes et al.; cited from earlier work
From the text: Senescence, a crucial biological event in plant development, involves the coordinated breakdown of cellular components to recycle nutrients, aiding adaptation to changing environments. It optimizes nutrient storage and reuse, particularly in leaves, the primary photosynthetic organs. Initiation of leaf senescence prompts various physiological changes, including chlorophyll (Chl) reduction and macromolecule degradation, enabling nutrient recycling that supports the growth of seeds and fruits ([Yang et al., 2014]; [Kim et al., 2018]; [Woo et al., 2019]; [Guo et al., 2021]). Efficient senescence ...

B1: SERINE-RICH ENDOGENOUS PEPTIDE 10 (peptide)
peptide: ALPYHHELFLGRKRMNYYKPNSAIGTPSSTSDHAPGSNGRKLMSIYRPNGDIFTGPSGSGHGGGRTPAP
notes: processed from PROSCOOP10; synthesized by GenScript
Chl content, intact rosette leaves ([1]; 1 to 10 days, WT, sixth rosette leaves): reduced Chl content
leaf senescence, intact rosette leaves ([1]; 10 days, 4-week-old WT, three experiments, 8 leaves each): significantly accelerated leaf senescence
Fv/Fm ratio, intact rosette leaves ([1]; WT): reduced Chl content and Fv/Fm ratio
sensitivity of bak1 mutants (root growth inhibition, published) [2]: sensitive to SCOOP10 application
expression of ORE1, NAP and SAG12 [3]: strongly and relatively quickly induced the expression of the tested transcripts
root growth inhibition in bak1-5 serk4 (published) [4]: milder phenotype in response to SCOOP10 treatment
immune response (published) [5]: inducing plant immune responses
interaction with MIK2 ectodomain [6]: SCOOP10 interacts with MIK2
PROSCOOP12 expression ([7]; 1 μM peptide, no pretreatment, detached leaves, vs mock, qPCR): induce the expression of PROSCOOP12 within 1 h
PROSCOOP12 expression, SCOOP10 pretreatment then SCOOP10 ([7]; pretreated with SCOOP10 24 h, treated with SCOOP10 for 1, 5 and 10 h): even stronger
root elongation (published) [8]: inhibiting root elongation
